# Laboratory results taken from the supplement of paper PMC10567573.
# ± gives the standard deviation.
# Test: protein stability index of a GFP-peptide fusion (GPS, HEK-293T) (PSI 1-6); higher = more stable
# Details: c terminus: a fixed tail appended
# 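Note: 24-mer peptide tiles fused after GFP, lentivirally expressed, FACS-sorted into six equal bins by GFP/DsRed ratio, decoded by Illumina sequencing, PSI is the read-weighted mean bin number.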
Sequence,protein stability index (treatment: DMSO),"protein stability index (treatment: MLN4924 1 uM, 8 h)"
EFMKTLEKTGPQLTSRIKGDWIGL [DENND6A],2.06 ± 0.23,2.23 ± 0.25
SLSTSSSSSPPGTPSPADAKAPPT [CEBPB],5.42 ± 0.15,5.34 ± 0.19
FFAFEHSEEYQQAQHKFLVAVESM [TCF25],3.59 ± 0.35,3.56 ± 0.4
IWDALDWTMQAYERNFWDPSPQLD [WDR41],2.2 ± 0.27,2.02 ± 0.34
MVKEPVEDTDPSTLSFNMSDKYPI [EDARADD],4.37 ± 0.43,4.5 ± 0.29
ESETRKAAKRMRLEIYQSSQDEPI [NOL4L],4.58 ± 0.071,4.65 ± 0.24
EACKAFFKRTIQGSIEYSCPASNE [ESRRA],2.98 ± 0.19,3 ± 0.17
HRTVKLVPWSQCLQNFLLHGTKNV [WSB1],2.19 ± 0.17,1.99 ± 0.21
YRQVPGSDPARYEFLWGPRAHAEI [MAGEA10],2.73 ± 0.24,2.91 ± 0.26
EQQRKLETYLQNHFAEEERSKYDY [TENT5C],4.35 ± 0.16,4.47 ± 0.099
QEAEEPKARVLRSKSLCHDEIENL [CDC25B],5.37 ± 0.089,5.57 ± 0.23
KGSLPQPPITEVESQVFSEKLATD [ZNF232],5.44 ± 0.17,5.24 ± 0.24
DPLANGCQGVSEAAHRLARRLYHL [PSD2],3.24 ± 0.18,3.52 ± 0.059
GAVIEVFGHRFIILDTDEYVLKYM [EFHC1],2.5 ± 0.56,2.27 ± 0.67
GGLSPVTNLTVTMDQLQGLGSDYE [CDC25A],4.24 ± 0.38,4.48 ± 0.18
ADLRTNHTLNNLVEKLLREEAEGA [TRIM35],4.32 ± 0.17,4.43 ± 0.2
ISKNSEKKMESEEDSNWEKSPDNE [GOLPH3L],5.57 ± 0.21,5.58 ± 0.1
VTQPCGDCGTIQENWVCLSCYQVY [HDAC6],2.89 ± 0.57,2.96 ± 0.7
AVWGQCQVRIRYLGERRAEPHSLL [SPSB2],2.26 ± 0.23,2.19 ± 0.28
EIKDLILPKISDPNFVKDLEEDLY [PI4K2A],3.16 ± 0.5,3.12 ± 0.38
PRKVSTCTDHELENHSMYCVQCKM [TRIM9],4.53 ± 0.27,4.74 ± 0.33
ENVSVEMLLRKFAESKGTGREKPG [FCHO1],3.9 ± 0.086,4.23 ± 0.26

Sequence,protein stability index (treatment: DMSO),"protein stability index (treatment: MLN4924 1 uM, 8 h)"
NSFSLNSSISSSARRTTRSEPIRR [MAP2],4.46 ± 0.27,4.53 ± 0.13
HECGTKYPVEWAKFCCECGIRRMI [ZC2HC1A],2.48 ± 0.3,2.71 ± 0.46
GQGPKPEADSQEQGHPQTGCECED [GAGE1],5.64 ± 0.15,5.4 ± 0.31
YLAYINAKSRAEAALEEESRQRQS [SMARCE1],3.93 ± 0.33,3.75 ± 0.33
EADVNGLRRVLDELTLARTDLEMQ [KRT16],4 ± 0.35,4.07 ± 0.094
VASVGNSRPTGQQLESLGLLAPGE [KISS1],4.44 ± 0.17,4.52 ± 0.3
KFGVVQTSVEECSQKGCLALSLLE [CLCN6],2.81 ± 0.071,2.99 ± 0.22
MLERRYTPYPNLYPDQSPSEDWTM [CLCN6],3 ± 0.3,3.16 ± 0.23
EGKTKKGVLEAPDTQVNPVGSVSV [FBXO34],5.08 ± 0.17,5.14 ± 0.11
NIHMNFTHICRSHNSINQSLDESV [SLC2A12],2.56 ± 0.25,2.54 ± 0.23
THFNTAQGFRTVLELVINYQQLCI [OAS1],3.26 ± 0.87,2.76 ± 0.37
PFSEFFKLRFNRKKKGMYRKAITE [PWWP2B],2.35 ± 0.43,2.9 ± 0.27
LRRKSPASGQGPMCNVKAPLGSPS [ADAMTS4],3.85 ± 0.2,3.86 ± 0.46
CSQGQQLATFSSDWEIQEDSRLMC [CCDC3],3.16 ± 0.073,3.03 ± 0.55
RTGLEKAAAGAVGLERRDWSPSPP [SPDEF],4.55 ± 0.2,4.49 ± 0.25
LRGLCANTVLRFLDLKGNNLRAAG [LRRC45],2.3 ± 0.24,2.24 ± 0.16
ASHTVGFTPPTSLTRAGMSYYNSP [CCDC6],2.82 ± 0.44,3.18 ± 0.21
QLISRMEYVHSKNLIYRDVKPENF [CSNK1G3],2.37 ± 0.24,2.42 ± 0.17
ELLTDKSCQSFISWTGDGWEFKLS [ETS1],2.24 ± 0.28,2.55 ± 0.37
FDHLQNRLIATKNPEEIRGGGLLK [TENT5C],3.73 ± 0.26,4.09 ± 0.36
AFPQTPFKTGNSTATCTTNNNPNS [KCNA3],4.61 ± 0.4,4.62 ± 0.17
LPFERLAFVLSSNSLKHCTELELF [KLHL13],2.73 ± 0.6,2.76 ± 0.62
